Experimental data: the supplement of paper PMC7877785
± gives the uncertainty stated by the source.

Test: self-splicing fitness, log relative to wild type (ln ratio); higher = more splicing; Tetrahymena group I intron in knt gene, E. coli kanamycin selection, DiMSum; sequences stand for … in CUCUCU…GGAGGGAAAAGUUAUCAGGCAUGCACCUGGUAGCUAGUCUUUAAACCAAUAGAUUGCAUCGGUUUAAAAGGCAAGACCGUCAAAUUGCGGGAAAGGGGUCAACAGCCGUUCAGUACCAAGUCUCAGGGGAAACUUUGAGAUGGCCUUGCAAAGGGUAUGGUAAUAAGCUGACGGACAUGGUCCUAACCACGCAGCCAAGUCCUAAGUCAACAGAUCUUCUGUUGAUAUGGAUGCAGUUCACAGACUAAAUGUCGGUCGGGGAAGAUGUAUUCUUCUCAUAAGAUAUAGUCGGACCUCUCCUUAAUGGGAGCUAGCGGAUGAAGUGAUGCAACACUGGAGCCGCUGGGAACUAAUUUGUAUGCGAAAGUAUAUUGAUUAGUUUUGGAGUACUCGUGGUCG
Summary of the method: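 DiMSum derived fitness as the error-weighted combination of fold changes across replicates, kanamycin versus no kanamycin, normalised to wild type. E. coli BL21(DE3) held the library, which randomised all eight P1ex-region intron nucleotides within the knt kanamycin-resistance gene on pET-22b(+). Six replicate transformations grew overnight at 37°C or 30°C on LB agar with or without 25 μg/mL kanamycin, also containing 100 μg/mL carbenicillin, 50 μM IPTG and 0.2% rhamnose, and pooled colonies were amplicon-sequenced on an Illumina HiSeq 2500.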

Sequence	self-splicing fitness (ln) (30 °C)	self-splicing fitness (ln) (37 °C)
GUAGAGCAAUAUUACGCGCC	-3.54 ± 0.29	-1.67 ± 0.38
GUAGAGCAAUAUUACGGAAC	-1.59 ± 0.3	
GUAGAGCAAUAUUACGGACU	-1.4 ± 0.18	-0.459 ± 0.23
GUAGAGCAAUAUUACGGAUU	-2.61 ± 0.24	-0.513 ± 0.2
GUAGAGCAAUAUUACGGCAA	-2.01 ± 0.13	-0.535 ± 0.21
GUAGAGCAAUAUUACGGCAC	-0.941 ± 0.4	
GUAGAGCAAUAUUACGGCCC	-1.36 ± 0.29	-0.935 ± 0.32
GUAGAGCAAUAUUACGGGAA	-3.56 ± 0.32	-2.35 ± 0.26
GUAGAGCAAUAUUACGGGGU	-3.18 ± 0.2	-2.07 ± 0.15
GUAGAGCAAUAUUACGGGUG	-2.72 ± 0.22	-2.93 ± 0.28
GUAGAGCAAUAUUACGUACC	-3.88 ± 0.47	-1.59 ± 0.37
GUAGAGCAAUAUUACGUCCA	-2.45 ± 0.28	-0.739 ± 0.34
GUAGAGCAAUAUUACGUUCG	-1.08 ± 0.065	-0.139 ± 0.13
GUAGAGCAAUAUUACGUUGG	-2.16 ± 0.11	-2.04 ± 0.15
GUAUAGCAAUAUUACGAGAC	-1.38 ± 0.4	-1.24 ± 0.47
GUAUAGCAAUAUUACGAGCG	-1.98 ± 0.16	-1.39 ± 0.14
GUAUAGCAAUAUUACGAUAG	-1.67 ± 0.099	-0.533 ± 0.1
GUAUAGCAAUAUUACGAUUG	-3.48 ± 0.42	-1.67 ± 0.3
GUAUAGCAAUAUUACGCCAG	-3.17 ± 0.33	-1.26 ± 0.29
GUAUAGCAAUAUUACGCUAU	-3.33 ± 0.33	-1.23 ± 0.28
GUAUAGCAAUAUUACGGAGA		-2.57 ± 0.45
GUAUAGCAAUAUUACGGCCC		-0.246 ± 0.44
GUAUAGCAAUAUUACGGGAG		-1.77 ± 0.35
GUAUAGCAAUAUUACGGGCA	-1.34 ± 0.24	-1.35 ± 0.25
GUAUAGCAAUAUUACGGGGA	-2.52 ± 0.22	-2.83 ± 0.38

Sequence	self-splicing fitness (ln) (30 °C)	self-splicing fitness (ln) (37 °C)
GUAUAGCAAUAUUACGGUCA	-1.5 ± 0.2	-0.663 ± 0.18
GUAUAGCAAUAUUACGGUUA	-1.28 ± 0.11	-0.761 ± 0.098
GUAUAGCAAUAUUACGGUUC	-1.22 ± 0.1	-0.0871 ± 0.12
GUAUAGCAAUAUUACGGUUU	-0.844 ± 0.089	-1.29 ± 0.16
GUAUAGCAAUAUUACGUAAC	-1.95 ± 0.36	-1.98 ± 0.32
GUAUAGCAAUAUUACGUCAA	-2.37 ± 0.37	-2.86 ± 0.32
GUAUAGCAAUAUUACGUCGC	-3.04 ± 0.25	-1.65 ± 0.2
GUAUAGCAAUAUUACGUCGU	-2.22 ± 0.12	-0.949 ± 0.13
GUAUAGCAAUAUUACGUUGG	-3.33 ± 0.31	-1.12 ± 0.26
GUAUAGCAAUAUUACGUUGU	-2.78 ± 0.26	-1.72 ± 0.23
GUAUAGCAAUAUUACGUUUC	-3.37 ± 0.25	-2.36 ± 0.33
GUAUAGCAAUAUUACGUUUG	-4.31 ± 0.46	-2.11 ± 0.2
GUCAAGCAAUAUUACGACCG	-3.14 ± 0.42	
GUCAAGCAAUAUUACGAGGA	-3.75 ± 0.47	-4.45 ± 0.45
GUCAAGCAAUAUUACGAUAA	-1.8 ± 0.14	-1.58 ± 0.15
GUCAAGCAAUAUUACGAUGA	-2.41 ± 0.17	-1.1 ± 0.11
GUCAAGCAAUAUUACGAUGC	-1.3 ± 0.098	-0.442 ± 0.11
GUCAAGCAAUAUUACGCAAG	-3.29 ± 0.18	-2.48 ± 0.18
GUCAAGCAAUAUUACGCACU	-1.71 ± 0.062	-0.433 ± 0.072
GUCAAGCAAUAUUACGCCUU	-1.61 ± 0.068	-0.671 ± 0.097
GUCAAGCAAUAUUACGCGAG	-1.83 ± 0.11	-1.36 ± 0.12
GUCAAGCAAUAUUACGCUCU	-1.58 ± 0.14	-1.18 ± 0.14
GUCAAGCAAUAUUACGGACU	-4.38 ± 0.39	-2.72 ± 0.26
GUCAAGCAAUAUUACGGAGC	-2.47 ± 0.46	
GUCAAGCAAUAUUACGGCAA	-2.06 ± 0.15	-1.01 ± 0.094

Sequence	self-splicing fitness (ln) (30 °C)	self-splicing fitness (ln) (37 °C)
GUCAAGCAAUAUUACGGCGA	-2.1 ± 0.14	-0.0443 ± 0.12
GUCAAGCAAUAUUACGGUAU	-1.54 ± 0.075	-0.662 ± 0.085
GUCAAGCAAUAUUACGUGCC	-4.07 ± 0.2	-2.73 ± 0.19
GUCAAGCAAUAUUACGUGCU	-3.07 ± 0.13	-2.7 ± 0.23
GUCAAGCAAUAUUACGUGUU	-2.85 ± 0.089	-1.35 ± 0.089
GUCCAGCAAUAUUACGAAAA	-1.1 ± 0.2	-0.701 ± 0.13
GUCCAGCAAUAUUACGAAUU	-0.818 ± 0.078	0.257 ± 0.097
GUCCAGCAAUAUUACGACAG	-3.57 ± 0.36	-1.93 ± 0.41
GUCCAGCAAUAUUACGAGGA	-2.98 ± 0.27	-2.64 ± 0.3
GUCCAGCAAUAUUACGAGGU	-2.34 ± 0.11	-1.34 ± 0.13
GUCCAGCAAUAUUACGAGUC	-1.23 ± 0.097	-0.164 ± 0.098
GUCCAGCAAUAUUACGAGUU	-1.98 ± 0.095	-1.26 ± 0.091
GUCCAGCAAUAUUACGCGCG	-1.58 ± 0.093	-0.665 ± 0.096
GUCCAGCAAUAUUACGCGGU	-3.19 ± 0.24	-2.14 ± 0.17
GUCCAGCAAUAUUACGCUGC	-1.85 ± 0.34	0.221 ± 0.36
GUCCAGCAAUAUUACGCUUC	-1.38 ± 0.083	-0.138 ± 0.11
GUCCAGCAAUAUUACGGAGC	-2.17 ± 0.087	-2.68 ± 0.088
GUCCAGCAAUAUUACGGAUC	-4.49 ± 0.28	-3.62 ± 0.27
GUCCAGCAAUAUUACGGCUA	-0.25 ± 0.068	0.143 ± 0.073
GUCCAGCAAUAUUACGGGGU	-3.62 ± 0.19	-2.65 ± 0.15
GUCCAGCAAUAUUACGUAUC	-0.611 ± 0.096	-0.264 ± 0.11
GUCCAGCAAUAUUACGUGCG	-1.15 ± 0.085	-1.14 ± 0.12
GUCCAGCAAUAUUACGUGGU	-1.61 ± 0.059	-1.03 ± 0.064
GUCGAGCAAUAUUACGAAGC	-2.37 ± 0.19	-1.85 ± 0.23
GUCGAGCAAUAUUACGACAC	-0.476 ± 0.2	-1.13 ± 0.17

Sequence	self-splicing fitness (ln) (30 °C)	self-splicing fitness (ln) (37 °C)
GUCGAGCAAUAUUACGACCA		-0.961 ± 0.42
GUCGAGCAAUAUUACGACCG	-1.69 ± 0.5	
GUCGAGCAAUAUUACGAGGC	-3.01 ± 0.21	-3.06 ± 0.31
GUCGAGCAAUAUUACGCGAU	-3.36 ± 0.27	
GUCGAGCAAUAUUACGCGUC	-1.43 ± 0.15	-2.49 ± 0.2
GUCGAGCAAUAUUACGCUAA		-1.5 ± 0.2
GUCGAGCAAUAUUACGGACA	-1.8 ± 0.49	-1.95 ± 0.47
GUCGAGCAAUAUUACGGCAA	-3.13 ± 0.31	-1.76 ± 0.29
GUCGAGCAAUAUUACGGUUA	-2.03 ± 0.49	0.142 ± 0.25
GUCGAGCAAUAUUACGUCGA	-3.97 ± 0.42	-2.65 ± 0.44
GUCGAGCAAUAUUACGUGCA	-2.29 ± 0.22	-0.701 ± 0.17
GUCGAGCAAUAUUACGUUGU		-2.78 ± 0.37
GUCUAGCAAUAUUACGAACU	-1.9 ± 0.2	-1.12 ± 0.19
GUCUAGCAAUAUUACGACGC	-0.0791 ± 0.12	0.364 ± 0.14
GUCUAGCAAUAUUACGACGU	-0.253 ± 0.15	0.696 ± 0.17
GUCUAGCAAUAUUACGACUC	-0.625 ± 0.13	-0.52 ± 0.15
GUCUAGCAAUAUUACGAGCU	-2.17 ± 0.33	-0.962 ± 0.23
GUCUAGCAAUAUUACGAUUA	-0.177 ± 0.17	0.177 ± 0.12
GUCUAGCAAUAUUACGCAGU	-1.25 ± 0.13	0.0079 ± 0.15
GUCUAGCAAUAUUACGCGGG	-3.1 ± 0.19	-1.98 ± 0.17
GUCUAGCAAUAUUACGCUCC	-1.44 ± 0.18	0.66 ± 0.2
GUCUAGCAAUAUUACGCUGG	-2.84 ± 0.36	-2.2 ± 0.27
GUCUAGCAAUAUUACGCUUU	-0.366 ± 0.066	-0.192 ± 0.08
GUCUAGCAAUAUUACGGAUG	-1.93 ± 0.2	0.0916 ± 0.19
